Measurements from publication PMC4803751, “Identification and Partial Characterization of a Novel UDP-N-Acetylenolpyruvoylglucosamine Reductase/UDP-N-Acetylmuramate:L-Alanine Ligase Fusion Enzyme from Verrucomicrobium spinosum DSM 4136^T” (Frontiers in Microbiology, 2016).

Columns and labels:
Experiment in all cases: radiometric HPLC assay of UDP-MurNAc-L-Ala formation
Assay type in all cases: biochemical, Verrucomicrobium spinosum
[1] = substrate: CC(=O)N[C@H]1[C@@H](OP(=O)(O)OP(=O)(O)OC[C@H]2O[C@@H](n3ccc(=O)[nH]c3=O)[C@H](O)[C@@H]2O)O[C@H](CO)[C@@H](O)[C@@H]1O[C@H](C)C(=O)O; settings: 5 mM ATP, 0.2 mM L-Ala, 10 mM MgCl2, 100 mM Tris-HCl pH 9.0, 10 mM ammonium sulfate, 0.5 mg/mL BSA, 37°C, UDP-MurNAc 25-500 μM, labelled compound, MurC activity
Description: (§1) radiometric HPLC assay of UDP-MurNAc-L-Ala formation on MurB/CVs (MurCVs activity)

[2] = substrate: C[C@H](N)C(=O)O; settings: 5 mM ATP, 1 mM UDP-MurNAc, 10 mM MgCl2, 100 mM Tris-HCl pH 9.0, 10 mM ammonium sulfate, 0.5 mg/mL BSA, 37°C, L-Ala 10-400 μM, labelled compound, MurC activity
Description: as §1

[3] = substrate: Nc1ncnc2c1ncn2[C@@H]1O[C@H](COP(=O)(O)OP(=O)(O)OP(=O)(O)O)[C@@H](O)[C@H]1O; settings: 1 mM UDP-MurNAc, 0.2 mM L-Ala, 10 mM MgCl2, 100 mM Tris-HCl pH 9.0, 10 mM ammonium sulfate, 0.5 mg/mL BSA, 37°C, ATP 0.2-5 mM, MurC activity
Description: as §1

B1: MurB/CVs (MurCVs activity) (Verrucomicrobium spinosum) (protein)
chain: MNHAVVSLLKEGRHKMHVHLIGVAGSGMSGLALLLMELGHKVSGSDKVTTLETERMEKKGLIFHCPQSEREVEGADMVIYSSAVKPGNPAYEAAYRHGIPLVRRAEALAAIMARKHGVVVAGTHGKTTTSSMAAHVLRVGGAKPSHYVGAEIPILGSNAHWDDAGELFVAEGDESDGTLVKFEPRHAIILNIEAEHLDYYEDLNEIKLVFRQLLEKTSGYSVYCAEDPVATELCEGRKNGISYGWSRDHNFSANILELRPAQTRYEVFQKGELLGEVLLGIPGRHNVLNSLAAISLAVSVGVPFSSIKQALESFRGARRRFEVKYSGSQYQIIDDYGHHPTEIKATLATAKALNPKRIVCLFQPHRYSRTQLLKQEFGGAFNDVDVLCVTDVYAASEKPLPGVSGETILEEVKLQAPGVECHSTPKLLNARDLIGSKLRPGDLLITLGAGNVHEVGSALARDLKVAEQLTTVLNREGGGTVKLYEPMANHTTIRLGGPAQYWIEPMTIQGFAEVVKALRAALIPIRVIGRGSNLLVRDGGIKGAVLHPSKGEFDEVRVDGNFIFAATGVRLKKIASAARAAGLGGFEWMEGIPGNLGGALRMNAGAMGLQTFDQVVSVRFLDGNGELREKMKHEIDHQYRSVPELDRHFAVSAVLQGRPAEAAEIDEKLAASHQKRRGSQPIGASAGCIFKNPGPVPAGKLVDELGLKGRSFGKAIVSDVHGNFILNSGGGTARDVQDLISDIKQVALQERGIMLETEVQIIGEEEPLPL
Km [1]: 90 ± 25 µM
Km [2]: 25 ± 10 µM
kcat [2]: 8 s⁻¹
Km [3]: 470 ± 160 µM
